# Reference: doi:10.1101/2025.07.01.662558 (bioRxiv, 2025)
# T1: Hsp90 from S. oneidensis (Hsp90So), purified, non-labeled (S. oneidensis, UniProt Q8EFF7 1-637)
# T1 sequence (looked up): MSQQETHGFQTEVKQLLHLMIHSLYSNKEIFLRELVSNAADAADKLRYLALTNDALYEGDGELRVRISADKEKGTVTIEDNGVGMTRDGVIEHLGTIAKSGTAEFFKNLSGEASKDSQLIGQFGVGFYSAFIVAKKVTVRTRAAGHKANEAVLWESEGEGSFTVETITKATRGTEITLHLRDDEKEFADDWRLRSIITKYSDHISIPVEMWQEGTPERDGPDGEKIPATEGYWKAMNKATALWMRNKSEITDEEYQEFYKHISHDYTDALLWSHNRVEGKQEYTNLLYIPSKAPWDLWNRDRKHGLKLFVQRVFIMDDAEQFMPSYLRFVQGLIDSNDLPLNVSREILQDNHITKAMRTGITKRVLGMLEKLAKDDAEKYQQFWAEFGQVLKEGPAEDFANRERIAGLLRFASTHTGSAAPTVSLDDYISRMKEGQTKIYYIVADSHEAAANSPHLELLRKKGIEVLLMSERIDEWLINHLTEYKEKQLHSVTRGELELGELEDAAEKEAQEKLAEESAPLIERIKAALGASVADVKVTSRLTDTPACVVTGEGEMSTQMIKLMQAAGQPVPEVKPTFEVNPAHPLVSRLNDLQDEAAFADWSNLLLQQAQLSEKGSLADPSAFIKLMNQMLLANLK
# Target: T1, Hsp90 from S. oneidensis (Hsp90So), …
# Assay: MST
Kd [µM],binding result,Binder
1.09,,"TilS from S. oneidensis (TilSSo), purified, with 6-His tag (natural protein, UniProt Q8EGF9 1-464, looked up, RED-tris-NTA 2nd generation dye (NanoTemper) on the 6-His tag) MTAQDLSVHIARWLDSLPLQAGSKLVLAYSGGVDSEVLAYGLSEYAKQRPDLRYQLIYVHHGLSPNADNWAKHCQARAAIYGLPVTVERVQLILGPRVSVEAEARKARYQAILPHLNPQDILLTAHHEDDQLETILLALKRGQGPKGLAAMGQIQPLSLADKGSCLQVRPLLDISREMIETFAQTRQLVHIEDESNQDDKYDRNFLRLEIIPRLKARWPSIATTASRSAQLCAEQQAIVETEVSERLPKLLVKAPVTEQTVLKLSELAAQPIEWQGILLRGFIESQEFSLPSYVQLQQMLQQLIHAKEDAKVHIRINDCVLRRFAGMLYLDSGETLSTALHITARDLHQEILTLLTQASAMVEDKIVPFALVTTGPRLRLPKADEVVSLGYGLPGQFRCQPHFRDKGRELKKLWQECAVPPWLRAEVGFLFYNDKLVMAFGLWVEKAFCAQGDEIGLSYLIANP"
,binds,"TilSSoL340P, purified (natural protein, S. oneidensis, UniProt Q8EGF9 1-464, looked up, RED-tris-NTA 2nd generation dye (NanoTemper)) MTAQDLSVHIARWLDSLPLQAGSKLVLAYSGGVDSEVLAYGLSEYAKQRPDLRYQLIYVHHGLSPNADNWAKHCQARAAIYGLPVTVERVQLILGPRVSVEAEARKARYQAILPHLNPQDILLTAHHEDDQLETILLALKRGQGPKGLAAMGQIQPLSLADKGSCLQVRPLLDISREMIETFAQTRQLVHIEDESNQDDKYDRNFLRLEIIPRLKARWPSIATTASRSAQLCAEQQAIVETEVSERLPKLLVKAPVTEQTVLKLSELAAQPIEWQGILLRGFIESQEFSLPSYVQLQQMLQQLIHAKEDAKVHIRINDCVLRRFAGMLYLDSGETLSTAPHITARDLHQEILTLLTQASAMVEDKIVPFALVTTGPRLRLPKADEVVSLGYGLPGQFRCQPHFRDKGRELKKLWQECAVPPWLRAEVGFLFYNDKLVMAFGLWVEKAFCAQGDEIGLSYLIANP"
